This is an account of results in patent US20240294622A1 (SUZHOU TRANSCENTA THERAPEUTICS, published 2024).

The target in assay [1] is T1, HGREM1-His (ACRO) (human, UniProt O60565 25-184).
T1 construct: Lys25-Asp184 of NP_037504 with C-terminal polyhistidine tag (ACRO GR1-H52H3); they are put here; also called hGREM1 (ACRO); human gremlin (ACRO)
T1 sequence: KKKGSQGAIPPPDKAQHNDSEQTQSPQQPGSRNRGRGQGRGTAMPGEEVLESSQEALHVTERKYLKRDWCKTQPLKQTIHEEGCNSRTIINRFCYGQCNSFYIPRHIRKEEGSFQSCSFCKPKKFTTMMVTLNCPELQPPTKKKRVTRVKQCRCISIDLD
Kind of assay: ELISA, binding to hGremlin-his.

A further assay has as its target T2, XM5-his (human (hGREM1 with residues 123-143 …)).
T2 construct: Unpurified supernatant used; also called gremlin-DAN fusion protein XM5; chimeric hGREM1
T2 chain: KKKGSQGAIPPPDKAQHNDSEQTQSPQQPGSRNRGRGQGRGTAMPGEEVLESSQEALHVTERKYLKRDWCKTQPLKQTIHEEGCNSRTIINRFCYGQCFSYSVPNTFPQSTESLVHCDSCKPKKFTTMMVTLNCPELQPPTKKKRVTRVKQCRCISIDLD
Kind of assay: ELISA: antibody coated, XM5-his supernatant titrated (axis: supernatant percentage, %), anti-his-HRP. On the procedure:
(§1) Using a similar ELISA protocol mentioned above, binding of chimeric antibody 14E3 to XM5 or Gremlin were tested. […] The secondary antibody anti-his-HRP was used for detection.

The target of assay [2] is T3, hGREM1 (source and construct not stated) (human, UniProt O60565 25-184).
T3 construct: also called Gremlin; gremlin
T3 sequence: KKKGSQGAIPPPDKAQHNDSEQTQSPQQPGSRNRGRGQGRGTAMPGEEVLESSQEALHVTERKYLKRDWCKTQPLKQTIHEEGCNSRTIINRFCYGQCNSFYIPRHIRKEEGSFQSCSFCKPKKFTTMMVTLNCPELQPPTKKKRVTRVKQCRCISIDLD
The assay can be described thus: ELISA on hGREM1.

Assay [3] has as its target T4, hGREM1 (Peprotech) (human, UniProt O60565 25-184).
T4 construct: also called biotin-hGremlin
T4 sequence: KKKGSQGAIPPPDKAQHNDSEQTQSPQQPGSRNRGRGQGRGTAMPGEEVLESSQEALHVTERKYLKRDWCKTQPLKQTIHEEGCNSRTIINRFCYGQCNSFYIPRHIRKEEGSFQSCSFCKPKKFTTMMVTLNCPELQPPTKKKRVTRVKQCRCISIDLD
Kind of assay: SPR Biacore T200, 25 C, hGREM1 (Peprotech) immobilized, antibody 12.5-400 nM. As to the method: (§2) HGREM1 (Peprotech) was immobilized on the Biacore sensor chip. Kinetic experiments were carried out using HBS-EP+ as both the running buffer and the sample buffer. […] Antibody-antigen association was monitored for 180 s while dissociation in buffer was monitored for 360 s. Kinetic analysis was performed using Biacore T200 evaluation software to determine Ka and Kd values. KD was calculated from the experimentally determined Ka and Kd values as KD=Kd/Ka.

The target in assay [4] is T4, hGREM1 (Peprotech). The assay can be described thus: Biacore at 25 °C, Gremlin (Peprotech) on the chip, antibody as analyte. On the procedure:
as §2

Assay [5] has as its target T1, HGREM1-His (ACRO). The assay can be described thus: ELISA: antibody coated, Gremlin-his titrated, anti-his-HRP; the concentration is that of Gremlin-his. On the procedure:
as §1

The target of assay [6] is T1, HGREM1-His (ACRO). Kind of assay: competition ELISA on captured human gremlin (Acro,0.5ug/ml), lower panel: hybridoma 22F1 titrated against a fixed amount of chimeric 22F1-C, bound chimeric antibody detected. As to the method: (§3) Epitope binning of anti-gremlin hybridoma antibodies were performed using a competition ELISA assay. Clear polystyrene plates (BEAVER) were coated with 100 μl/well of a 0.5 μg/ml hGREM1 (ACRO) in high pH coating buffer overnight at 4° C. Then the plates were washed once on an automatic plate washer using PBS+0.1% Tween 20 (Sigma). 100 μl of block solution consisting of PBS+1% BSA+1% normal goat serum+0.05% Tween 20 (Sigma) was added to each well and incubated at room temperature for 2 hours. Then 50 μl/well of 20 μg/ml saturated antibodies (hybridoma antibodies) in antibody dilution buffer (PBS+1% BSA+1% normal goat serum+0.01% Tween 20) were then added to each well of the plate and incubate for 1 hour. Then add 50 μl/well of 40 ng/ml competitive antibodies (chimeric antibodies, e.g., 14E3-C, 22F1-C, 56C11-C, and 69H5-C) to each well of the plate and incubate for another 1 hour at room temperature. […] The plates were read on a plate reader at 450 nm. The failure of the second antibody to bind in the presence of saturating quantities of the first antibody indicates the two antibodies were in the same epitope bin; the success of the second antibody to bind in the presence of the saturating quantities of the first antibody indicates the two antibodies were in different epitope bins. […]
(§4) The amount of chimeric antibody bound to gremlin were determined.

For assay [7], the target named is T1, HGREM1-His (ACRO). Kind of assay: ELISA, coated hGREM1 (ACRO). As to the method: (§5) Clear polystyrene plates (BEAVER) were coated with 100 μl/well of a […] hGREM1 (ACRO) and mouse gremlin (R&D) in high pH coating buffer overnight at 4° C. Then the plates were washed once on an automatic plate washer using PBS+0.1% Tween 20 (Sigma). 100 μl of block solution consisting of PBS+1% BSA+1% normal goat serum+0.5% Tween 20 (Sigma) was added to each well and incubated at room temperature for 2 hours. Then 100 μl of antibodies in antibody dilution buffer containing PBS+1% BSA+1% normal goat serum+0.01% Tween 20 starting from 2 μg/ml and then serial dilutions were added to each well of the plate and incubated for 1 hours at room temperature. Afterward the plates were washed three times with 200 μl of PBS+0.1% Tween20 followed by adding 100 μl/well 1:10000 Goat anti mouse IgG-HRP (abcam), and incubate for 1 hour at room temperature. They were then washed 3× with PBS+0.1% Tween20. Finally, 100 µl/well of TMB (Pierce) was added to each well and after several minutes add 50 μl of stop solution to each well. The plates were read on a Multiscan FC microplate reader (Thermo Scientific) at […].

The target in assay [8] is T1, HGREM1-His (ACRO). Kind of assay: competition ELISA on captured human gremlin (Acro,0.5ug/ml), lower panel: hybridoma 22F1 titrated against a fixed amount of chimeric 14E3-C, bound chimeric antibody detected. On the procedure: as §3, §4
For another assay, the target named is T5, Mouse Gremlin-His (R&D) (mouse, UniProt O70326 25-184).
T5 construct: Lys25-Asp184 with 10xHis, R&D 956-GR; also called mouse gremlin (R&D); mGREM1
T5 sequence: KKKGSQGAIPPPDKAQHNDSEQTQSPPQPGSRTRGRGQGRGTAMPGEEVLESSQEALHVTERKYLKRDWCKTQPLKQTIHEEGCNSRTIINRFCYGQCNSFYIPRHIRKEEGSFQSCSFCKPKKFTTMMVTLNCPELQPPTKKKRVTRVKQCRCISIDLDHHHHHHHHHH
Kind of assay: ELISA on coated Mouse Gremlin-his, anti-mouse IgG-HRP. As to the method:
as §5

The target in another assay is T6, BMP7 with his-tag (Homo sapiens (Human), UniProt P18075 293-431, Natural BMP7 is a disulfide-linked homodimer; one protomer is given. The his-tag is left out.).
T6 construct: also called BMPs (BMP2/4/7) with his-tag
T6 sequence: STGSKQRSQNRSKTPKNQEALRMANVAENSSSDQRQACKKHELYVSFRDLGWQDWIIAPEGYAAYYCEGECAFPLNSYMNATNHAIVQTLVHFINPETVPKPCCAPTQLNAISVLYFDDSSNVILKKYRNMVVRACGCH
The assay can be described thus: ELISA: anti-human Fc coated, XM5-hFc supernatant (1:32) captured, his-tagged BMP7 titrated, anti-his-HRP.

The next assay deals with T7, BMP2 with his-tag (Homo sapiens (Human), UniProt P12643 283-396, Natural BMP2 is a disulfide-linked homodimer; one protomer is given. The his-tag is left out.).
T7 construct: soluble his-tagged BMP used on captured XM5-Fc or Gremlin-Fc; also called BMPs (BMP2/4/7) with his-tag
Kind of assay: ELISA: anti-human Fc coated, XM5-hFc supernatant (1:32) captured, his-tagged BMP2 titrated, anti-his-HRP.

In the next assay the target is T8, BMP4 with his-tag (Homo sapiens (Human), UniProt P12644 293-408, Natural BMP4 is a disulfide-linked homodimer; one protomer is given. The his-tag is left out.).
T8 construct: also called BMPs (BMP2/4/7) with his-tag
T8 sequence: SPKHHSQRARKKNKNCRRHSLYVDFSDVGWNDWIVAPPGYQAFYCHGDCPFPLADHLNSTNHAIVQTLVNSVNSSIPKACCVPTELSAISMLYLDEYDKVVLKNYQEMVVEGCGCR
Kind of assay: ELISA: anti-human Fc coated, XM5-hFc supernatant (1:32) captured, his-tagged BMP4 titrated, anti-his-HRP.

Assay [9] has as its target T1, HGREM1-His (ACRO). Kind of assay: ELISA: coated BMP4, gremlin titrated (sheet title: BMP2/4/7 binding to human gremlin-his). On the procedure: (§6) Gremlin is known to be able to bind to BMP proteins and is validated by the present disclosure. Briefly, gremlin-Fc was tested for its binding ability to BMP 2/4/7 immobilized on plate. Briefly, plates were coated with […] of recombinant human BMP2, BMP4) (hBMP4, Peprotech) or human BMP7 (R&D) overnight and wild-type gremlin-1 was added to coated plates and allowed to incubate for an additional hour at RT. The plates were then washed and plate bound biotin-hGremlin was detected with neutravidin conjugated with HRP (thermo). Plates were then developed with a TMB solution and stopped by adding stop solution. The plates were read on a plate reader at 450 nm.

Assay [10] concerns the target T9, Gremlin-Fc (human, UniProt O60565 25-184).
T9 construct: also called HGREM1-Fc (ACRO); wild-type gremlin-1
T9 sequence: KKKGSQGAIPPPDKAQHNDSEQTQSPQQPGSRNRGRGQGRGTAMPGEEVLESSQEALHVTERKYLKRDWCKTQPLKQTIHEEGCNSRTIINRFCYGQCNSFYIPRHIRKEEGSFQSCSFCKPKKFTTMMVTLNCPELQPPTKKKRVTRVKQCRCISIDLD
Kind of assay: ELISA, coated BMP4 0.5 ug/ml. As to the method: as §6

For assay [11], the target named is T9, Gremlin-Fc. Kind of assay: ELISA, coated BMP2 0.5 ug/ml. As to the method: as §6
Assay [12] concerns the target T1, HGREM1-His (ACRO). Kind of assay: ELISA: coated BMP2, gremlin titrated (sheet title: BMP2/4/7 binding to human gremlin-his).

B1: 14E3-C (chimeric antibody of 14E3) (antibody, V domains shown)
VH: QIQLVQSGPELKKPGETVKISCKTSGSTFTTYGMAWMKQAPGKGLTWMGWINTLSGEPTYADDFKGRFAFSLKTSANTAYLQINNLKNEDAATYFCAREPMDYWGQGTSVIVSS
VL: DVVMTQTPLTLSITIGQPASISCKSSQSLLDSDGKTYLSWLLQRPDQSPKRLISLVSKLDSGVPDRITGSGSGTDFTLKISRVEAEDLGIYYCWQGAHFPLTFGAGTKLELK
notes: also called chimeric 14E3; 14E3 hIgG1
In turn, B1 came in with an EC50 with HGREM1-His (ACRO) [1] of 0.0068 µg/mL. The binding result with XM5-his is listed as “binds”. The EC50 in [2] was determined as 0.00524 µg/mL. Also, the Kd with hGREM1 (Peprotech) [3] worked out at 17.7 nM. Moreover, in the assay with hGREM1 (Peprotech) [4], the koff was determined as 0.000882 s⁻¹ and the kon was 49900 M⁻¹ s⁻¹. Moreover, in the assay with HGREM1-His (ACRO) [5], the “EC50 (read off the curve)” value is about 0.01 µg/mL.

B2: 22F1 (antibody, V domains shown)
VH: EAQLQQSGPELVKPGASVKISCKASGYSFTDYYMNWLKQSHGKSLEWIGDINPKDGDSGYSHKFKGKATLTVDKSSSTAYMELRSLTSEDSAVYYCASGFTTVVARGDYWGQGTTLTVSS
VL: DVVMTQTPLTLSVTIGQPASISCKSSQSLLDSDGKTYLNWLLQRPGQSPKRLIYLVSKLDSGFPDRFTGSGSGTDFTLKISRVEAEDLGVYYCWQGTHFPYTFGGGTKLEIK
notes: mouse hybridoma antibody; also called hybridoma 22F1
As for B2, the “IC50 (read off the curve)” value with HGREM1-His (ACRO) [6] and with HGREM1-His (ACRO) [8] was about 0.8 µg/mL throughout. In the assay with HGREM1-His (ACRO) [7], this molecule showed an EC50 of 0.0141 µg/mL. Also, the binding result with Mouse Gremlin-His (R&D) is reported as “no binding”.

B3: XM5-Fc (Fc fusion, not shown: a dimerising Fc or GST)
chain: KKKGSQGAIPPPDKAQHNDSEQTQSPQQPGSRNRGRGQGRGTAMPGEEVLESSQEALHVTERKYLKRDWCKTQPLKQTIHEEGCNSRTIINRFCYGQCFSYSVPNTFPQSTESLVHCDSCKPKKFTTMMVTLNCPELQPPTKKKRVTRVKQCRCISIDLD
notes: also called gremlin 1-DAN fusion protein
As to B3, the binding result with BMP7 with his-tag, with BMP2 with his-tag and with BMP4 with his-tag was “no binding (tested: 2.00 ug/ml)” throughout.

B4: recombinant human BMP4 (ligand, UniProt P12644 293-408, looked up)
chain: SPKHHSQRARKKNKNCRRHSLYVDFSDVGWNDWIVAPPGYQAFYCHGDCPFPLADHLNSTNHAIVQTLVNSVNSSIPKACCVPTELSAISMLYLDEYDKVVLKNYQEMVVEGCGCR
notes: also called hBMP4
B4: the binding result with HGREM1-His (ACRO) [9] and with Gremlin-Fc [10] was “binds” throughout.

B5: recombinant human BMP2 (ligand, UniProt P12643 283-396, looked up)
chain: QAKHKQRKRLKSSCKRHPLYVDFSDVGWNDWIVAPPGYHAFYCHGECPFPLADHLNSTNHAIVQTLVNSVNSKIPKACCVPTELSAISMLYLDENEKVVLKNYQDMVVEGCGCR
notes: also called hBMP2
Consider B5, for which the binding result with Gremlin-Fc [11] and in the assay with HGREM1-His (ACRO) [12] was “binds” throughout.
